Reference: ChEMBL document CHEMBL1221251, “Factorizing the role of a critical leucine residue in the binding of substrate to human 20alpha-hydroxysteroid dehydrogenase (AKR1C1): molecular modeling and kinetic studies of the Leu308Val mutant enzyme” (Bioorg Med Chem Lett, 2010)

Assays:
[1] = tested on: Aldo-keto reductase family 1 member C1 (Homo sapiens), Q04828 [UNDEFINED MUTATION]; experiment: Ratio of Kcat/Km for human recombinant AKR1C1 Leu308Val mutant to Kcat/Km for human recombinant wild type AKR1C1
[2] = tested on: Aldo-keto reductase family 1 member C1 (Homo sapiens), Q04828 [UNDEFINED MUTATION]; experiment: Ratio of Km for human recombinant AKR1C1 Leu308Val mutant to Km for human recombinant wild type AKR1C1
[3] = tested on: Aldo-keto reductase family 1 member C1 (Homo sapiens), Q04828 [UNDEFINED MUTATION]; experiment: Ratio of Kcat/Km for human recombinant AKR1C1 Leu308Ala mutant to Kcat/Km for human recombinant wild type AKR1C1
[4] = tested on: Aldo-keto reductase family 1 member C1 (Homo sapiens), Q04828 [UNDEFINED MUTATION]; experiment: Ratio of Km for human recombinant AKR1C1 Leu308Ala mutant to Km for human recombinant wild type AKR1C1
[5] = target: T1, Aldo-keto reductase family 1 member C1 (Homo sapiens) (UniProt Q04828); experiment: Activity at human recombinant wild type AKR1C1 expressed in Escherichia coli JM109 after 15 mins
[6] = substrate: CC(=O)[C@H]1CC[C@H]2[C@@H]3CC[C@@H]4C[C@H](O)CC[C@]4(C)[C@H]3CC[C@]12C; experiment: (§1) Activity at human recombinant wild type AKR1C1 expressed in Escherichia coli JM109 after 15 mins
[7] = substrate: C[C@@H](O)[C@H]1CC[C@H]2[C@@H]3CC[C@H]4C[C@H](O)CC[C@]4(C)[C@H]3CC[C@]12C; experiment: as §1
[8] = substrate: CC(=O)[C@H]1CC[C@H]2[C@@H]3CC[C@@H]4C[C@H](O)CC[C@]4(C)[C@H]3CC[C@]12C; experiment: (§2) Ratio of kcat/km for human recombinant wild type AKR1C1 expressed in Escherichia coli JM109 after 15 mins
[9] = substrate: C[C@@H](O)[C@H]1CC[C@H]2[C@@H]3CC[C@H]4C[C@H](O)CC[C@]4(C)[C@H]3CC[C@]12C; experiment: as §2
[10] = target: T1, Aldo-keto reductase family 1 member C1 …; experiment: Ratio of kcat/km for human recombinant wild type AKR1C1 expressed in Escherichia coli JM109 after 15 mins
[11] = substrate: CC(=O)[C@H]1CC[C@H]2[C@@H]3CC[C@@H]4C[C@H](O)CC[C@]4(C)[C@H]3CC[C@]12C; experiment: (§3) Ratio of kcat/km for human recombinant AKR1C1 Leu308Val mutant expressed in Escherichia coli JM109 after 15 mins
[12] = substrate: C[C@@H](O)[C@H]1CC[C@H]2[C@@H]3CC[C@H]4C[C@H](O)CC[C@]4(C)[C@H]3CC[C@]12C; experiment: as §3
[13] = substrate: CC(=O)[C@H]1CC[C@H]2[C@@H]3CC[C@@H]4C[C@H](O)CC[C@]4(C)[C@H]3CC[C@]12C; experiment: (§4) Activity at human recombinant AKR1C1 Leu308Val mutant expressed in Escherichia coli JM109 after 15 mins
[14] = substrate: C[C@@H](O)[C@H]1CC[C@H]2[C@@H]3CC[C@H]4C[C@H](O)CC[C@]4(C)[C@H]3CC[C@]12C; experiment: as §4

How did the Ratio [1] turn out when `C[C@@H](O)[C@H]1CC[C@H]2[C@@H]3CC[C@H]4C[C@H](O)CC[C@]4(C)[C@H]3CC[C@]12C` was run?
Its Ratio is 7.

And the Ratio [2]?
The Ratio was 0.4.

Which results are given for `CC(=O)[C@H]1CC[C@H]2[C@@H]3CC[C@@H]4C[C@H](O)CC[C@]4(C)[C@H]3CC[C@]12C`?
Ratio [1]: 0.2; Ratio [2]: 2

Which Ratio [3] does the source give for `O[C@H]1CCCc2ccccc21` here?
Its Ratio is 0.01.

What about the Ratio [1] of the same molecule?
The Ratio was 0.2.

What about the Ratio [4] of the same molecule?
The Ratio was 67.

And the Ratio [2]?
The Ratio was 2.

B1: Aldo-keto reductase family 1 member C1 (Homo sapiens), Q04828 (protein)
chain: MDSKYQCVKLNDGHFMPVLGFGTYAPAEVPKSKALEATKLAIEAGFRHIDSAHLYNNEEQVGLAIRSKIADGSVKREDIFYTSKLWCNSHRPELVRPALERSLKNLQLDYVDLYLIHFPVSVKPGEEVIPKDENGKILFDTVDLCATWEAVEKCKDAGLAKSIGVSNFNRRQLEMILNKPGLKYKPVCNQVECHPYFNQRKLLDFCKSKDIVLVAYSALGSHREEPWVDPNSPVLLEDPVLCALAKKHKRTPALIALRYQLQRGVVVLAKSYNEQRIRQNVQVFEFQLTSEEMKAIDGLNRNVRYLTLDIFAGPPNYPFSDEY
With B1 as the molecule, how does the Km [5] read?
Its Km is 7 µM⁻¹.

What about the Km [6] of the same molecule?
The Km was 7 µM⁻¹.

What about the Km [7] of the same molecule?
Its Km is 0.9 µM⁻¹.

What about the kcat/Km [8] of the same molecule?
The kcat/Km was 61700 M⁻¹ s⁻¹.

And the kcat/Km [9]?
The kcat/Km was 40000 M⁻¹ s⁻¹.

What about the kcat/Km [10] of the same molecule?
Its kcat/Km is 61700 M⁻¹ s⁻¹.

B2: Aldo-keto reductase family 1 member C1 (Homo sapiens), Q04828 L308V (protein)
chain: MDSKYQCVKLNDGHFMPVLGFGTYAPAEVPKSKALEATKLAIEAGFRHIDSAHLYNNEEQVGLAIRSKIADGSVKREDIFYTSKLWCNSHRPELVRPALERSLKNLQLDYVDLYLIHFPVSVKPGEEVIPKDENGKILFDTVDLCATWEAVEKCKDAGLAKSIGVSNFNRRQLEMILNKPGLKYKPVCNQVECHPYFNQRKLLDFCKSKDIVLVAYSALGSHREEPWVDPNSPVLLEDPVLCALAKKHKRTPALIALRYQLQRGVVVLAKSYNEQRIRQNVQVFEFQLTSEEMKAIDGLNRNVRYLTVDIFAGPPNYPFSDEY
Which results are given for B2?
kcat/Km [11]: 13300 M⁻¹ s⁻¹; kcat/Km [12]: 267000 M⁻¹ s⁻¹; Km [13]: 16 µM⁻¹; Km [14]: 0.4 µM⁻¹
